Data set [1] addresses fluorescently-labeled rabbit skeletal muscle actin (TMR-actin) (rabbit, UniProt P68135 1-377, TAMRA label (TAMRA NHS ester)). In words: pull-down.
Data set [2] addresses chicken skeletal muscle actin (chicken, UniProt P68139 1-377). In words: pull-down.
Data set [3] has as its target rabbit skeletal muscle actin (rabbit, UniProt P68135 1-377). In words: pull-down.
The data set “AUC” concerns the molecule itself. In words: AUC.
In another data set the target is INF2-Nterm (human, UniProt Q27J81 1-420). In words: fluorescence polarisation.
INF2-Nterm, sequence (Q27J81 1-420): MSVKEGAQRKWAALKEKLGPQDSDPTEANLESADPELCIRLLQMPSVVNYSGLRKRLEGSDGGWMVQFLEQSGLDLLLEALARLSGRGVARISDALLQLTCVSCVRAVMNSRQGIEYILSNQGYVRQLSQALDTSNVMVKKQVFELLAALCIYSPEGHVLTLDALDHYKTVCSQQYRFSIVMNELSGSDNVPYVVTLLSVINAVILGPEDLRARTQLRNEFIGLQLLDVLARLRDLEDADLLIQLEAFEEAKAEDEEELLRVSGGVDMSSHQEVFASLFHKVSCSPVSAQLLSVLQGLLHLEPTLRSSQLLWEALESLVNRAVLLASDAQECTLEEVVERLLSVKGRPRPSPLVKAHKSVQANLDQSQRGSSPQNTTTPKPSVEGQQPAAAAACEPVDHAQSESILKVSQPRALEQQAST

By stoichiometry N is commonly meant a count of units in the complex or per binding partner. As usually defined, the Kd is the free concentration of one partner at which half of the binding sites on the other are occupied at equilibrium, for simple one-to-one binding.

B1: human CAP2 with C-terminal GFP and Strep-tag II (natural protein)
chain: MANMQGLVERLERAVSRLESLSAESHRPPGNCGEVNGVIAGVAPSVEAFDKLMDSMVAEFLKNSRILAGDVETHAEMVHSAFQAQRAFLLMASQYQQPHENDVAALLKPISEKIQEIQTFRERNRGSNMFNHLSAVSESIPALGWIAVSPKPGPYVKEMNDAATFYTNRVLKDYKHSDLRHVDWVKSYLNIWSELQAYIKEHHTTGLTWSKTGPVASTVSAFSVLSSGPGLPPPPPPLPPPGPPPLFENEGKKEESSPSRSALFAQLNQGEAITKGLRHVTDDQKTYKNPSLRAQGGQTQSPTKSHTPSPTSPKSYPSQKHAPVLELEGKKWRVEYQEDRNDLVISETELKQVAYIFKCEKSTIQIKGKVNSIIIDNCKKLGLVFDNVVGIVEVINSQDIQIQVMGRVPTISINKTEGCHIYLSEDALDCEIVSAKSSEMNILIPQDGDYREFPIPEQFKTAWDGSKLITEPAEIMA
On to B1, for which the binding result in data set [1], in data set [2] and in data set [3] was “binds” in each case. Also, the “stoichiometry N” value in the data set “AUC” amounted to 6.

B2: INF2-Cterm labeled with tetramethylrhodamine (domain or fragment)
chain: not shown
modifications: tetramethylrhodamine-succinimide (TMR) label
In the data set with INF2-Nterm, B2 gave a Kd of roughly 28 µM.

Source of the values: article PMC6501848 (Nature cell biology, 2019).
